Changes are numbered by the printed parent chain.

A word on the Kd: it is a measure of binding affinity in units of concentration. One may read the EC50 (read off the curve) as the midpoint of the concentration-response curve. Higher therefore signals a need for much substance.

Sequences and labels used below:
B1: AB-009812 (antibody, mouse IgG2a, V domains shown)
VH: QVQLQQWGAGLLKPSETLSLTCAVYGGSFSDYYWSWIRQPPGKGLEWIGEVNHSGSINYNNYNPSLKSRVTISVDPSKNQFSLKLTSVTAADTAVYYCAKPLRPHCTNGVCYSGDAFDIWGQGTMVTVAS
VL: SYVLTQPPSVSVAPGQTARITCGGNNIGSKNVHWYQQKPGQAPVLVVYDDSDRPSGIPEQFSGSNSGNTATLTISRVEAGDEADYYCQVWDSSSDHLVFGGGTKLTVL
notes: Made on a mouse IgG2a framework
B2: AB-009813 (antibody, mouse IgG2a, V domains shown)
VH: B1 VH with S54A
VL: B1 VL
notes: as for B1
B3: AB-009816 (antibody, mouse IgG2a, V domains shown)
VH: B1 VH with S54R, P76A
VL: B1 VL
notes: as for B1
B4: AB-009815 (antibody, mouse IgG2a, V domains shown)
VH: B1 VH with S54R, P76T
VL: B1 VL
notes: as for B1
B5: AB-008873 (mouse IgG2a format) (antibody, V domains shown)
VH: B1 VH with S54R
VL: SYVLTQPPSVSVAPGQTARITCGGNNIGSKNVHWYQQKPGQAPVLVVYDDSDRPSGIPEQFSGSNSGNTATLTISRVEAGDEADYYCQVWDSSSDHLVFGGGTKLTVLG
B6: AB-010361 (mouse IgG2a format) (antibody, V domains shown)
VH: B1 VH with D31G, V51I, S54R, P76T, T86S
VL: B1 VL with L97V
notes: tested in mIgG2a format
B7: AB-010363 (mouse IgG2a format) (antibody, V domains shown)
VH: B1 VH with D31G, V51I, S54R, P76T, T86S
VL: B1 VL with Q60R, L97V
notes: tested in mIgG2a format
B8: AB-009805 (antibody, mouse IgG2a, V domains shown)
VH: QVQLQQWGAGLLKPSETLSLTCAVYGGSLSDYHWSWIRQPPGKGLEWIGEINHSGSTNYNPSLKSRVTISVDTSKNQFSLKLSSVSAADTAVYYCAKPFRPHCTNGVCHSGDAFDIWGQGTMATVSS
VL: B1 VL
B9: AB-009806 (antibody, mouse IgG2a, V domains shown)
VH: B8 VH with L29F, H33Y, T73P, S83T, S86T, H109Y, A123V
VL: B1 VL with S29T
B10: AB-009807 (antibody, mouse IgG2a, V domains shown)
VH: B8 VH with L29F, S30N, H33Y, I51V, N58S, S86T, H109Y, A123V
VL: B1 VL with V44A

The first assay concerns the target T1, Human EphA2 (human, UniProt P29317 24-976).
T1 construct: Endogenous EphA2 in fresh frozen human tumor tissue sections, not a recombinant protein; also called ephrin receptor A2; hEphA2
Kind of assay: IHC/IF on frozen human tumor tissue: RCC-papillary.
In the case of B1, the IHC score worked out at 1.

In turn, B2 yielded an IHC score of 1.

In the case of B3, the IHC score came out at 1.

B4 displayed an IHC score of 1.

Another assay deals with T1, Human EphA2. Nature of the assay: IHC/IF on frozen human tumor tissue: STS.
B1 yielded an IHC score of 2.

The molecule B2 returned an IHC score of 2.

In the case of B3, the IHC score was 2.

Molecule B4 returned an IHC score of 2.

In a further assay the target is T1, Human EphA2. Nature of the assay: IHC/IF on frozen human tumor tissue: UCEC-clear cell.
Molecule B1 displayed an IHC score of 1.

B2 had an IHC score of 2.

B3: the IHC score was 2.

The molecule B4 registered an IHC score of 2.

For a further assay, the target named is T2, C-terminally His-tagged hEphA2-FN2 (Thr437-Asn534+His tag) (human, UniProt P29317 437-534).
T2 construct: also called FN2 domain of hEphA2
Kind of assay: SPR Biacore T200, 25 C; mIgG2a captured by anti-mouse Fc, hEphA2-FN2-His analyte; steady-state monovalent KD. The protocol:
Binding of antibodies to the FN2 domain of hEphA2 was measured using the Biacore® T200 SPR system at 25° C. using HBS-EP+ buffer (0.01 M HEPES pH 7.4, 0.15 M NaCl, 3 mM EDTA, 0.005% v/v Surfactant P20). Antibodies in mIgG2a format were captured at levels between 475-715 RU via an anti-mouse Fc antibody immobilized to a CM5 chip. Binding was assessed using a titration of C-terminally His-tagged hEphA2-FN2 (Thr437-Asn534+His tag) associated for 30 s or 75 s at 30 μL/min. Data was double-reference subtracted using both a surface without captured antibody and from injections of HBS-EP+ buffer. The equilibrium response was measured at 4 seconds before the end of association with a window of 5 seconds and fit using the Biacore T200 Evaluation Software 3.1 with the Steady State Affinity Model.
B5 registered a dissociation constant (Kd) of 2260 nM.

With B6, the equilibrium dissociation constant (Kd) amounted to 1110 nM.

B7 returned a Kd of 1310 nM.

Another assay has as its target T1, Human EphA2. Nature of the assay: IHC/IF on frozen human tumor tissue: PANC.
For B1, the IHC score was 1.

B2 yielded an IHC score of 1.

Consider B3, for which the IHC score was determined as 1.

Regarding B4, the IHC score stood at 1.

For the next assay, the target named is T1, Human EphA2. Nature of the assay: IHC/IF on frozen human tumor tissue: CRC.
The molecule B1 had an IHC score of 1.

B2 showed an IHC score of 1.

B3: the IHC score was 1.

B4: the IHC score came to 1.

A further assay addresses T1, Human EphA2. Kind of assay: IHC/IF on frozen human tumor tissue: Her2+ BRC.
B1: the IHC score worked out at 2.

The molecule B2 showed an IHC score of 1.

In turn, B3 gave an IHC score of 2.

In turn, B4 yielded an IHC score of 2.

In another assay the target is T1, Human EphA2. Kind of assay: IHC/IF on frozen human tumor tissue: MELA.
B1 came in with an IHC score of 2.

In the case of B2, the IHC score turned out to be 2.

In the case of B3, the IHC score came out at 2.

As for B4, the IHC score is 2.

The target in a further assay is T1, Human EphA2. Kind of assay: IHC/IF on frozen human tumor tissue: TNBC.
For B1, the IHC score was 1.

As to B2, the IHC score amounted to 1.

For the molecule B3, the IHC score turned out to be 1.

Turning to B4, the IHC score is 1.

A further assay deals with T1, Human EphA2. Nature of the assay: IHC/IF on frozen human tumor tissue: URO.
For the molecule B1, the IHC score was 1.

On to B2, for which the IHC score is 1.

B3 gave an IHC score of 1.

B4 came in with an IHC score of 1.

For another assay, the target named is T3, Human EphA2 (ephrin receptor A2) on cells (human, UniProt P29317 25-976). Kind of assay: flow cytometry, A549 cells. The protocol:
Surface binding of the antibodies to in vitro grown cell lines was assessed by flow cytometry. Tumor cells were detached from their culture plate using Versene and counted. Cells were staining in BSA-containing buffer with primary antibody for 30 minutes at 4° C. with shaking. Following, cells were washed and stained with secondary PE-labeled antibody for 30 minutes at 4° C. with shaking. Before analysis on an Intellicyt iQue3 scanner, cells were counterstained with DAPI. MedFI values from live, single cells was expressed as fold over isotype control.
Take B8: the “Flow Delta activity (MedFI)” value is 75100 MedFI.

In the case of B9, the 50% effective concentration (EC50 (read off the curve)) was about 20 nM and the “Flow Delta activity (MedFI)” value worked out at 231000 MedFI.

On to B10, for which the “Flow Delta activity (MedFI)” value amounted to 12700 MedFI.

In another assay the target is T1, Human EphA2. Nature of the assay: IHC/IF on frozen human tumor tissue: PROC.
Take B1: the IHC score amounted to 1.

For B2, the IHC score was determined as 1.

B3 came in with an IHC score of 1.

B4 registered an IHC score of 1.

The next assay deals with T1, Human EphA2. Nature of the assay: IHC/IF on frozen human tumor tissue: NSCLC-SQ.
In the case of B1, the IHC score came out at 1.

For the molecule B2, the IHC score turned out to be 1.

Regarding B3, the IHC score is 1.

B4 registered an IHC score of 1.

In the next assay the target is T1, Human EphA2. Nature of the assay: IHC/IF on frozen human tumor tissue: UCEC-endometrioid.
In the case of B1, the IHC score is 1.

B2 had an IHC score of 1.

Turning to B3, the IHC score is 1.

For the molecule B4, the IHC score was determined as 1.

The target of another assay is T1, Human EphA2. Nature of the assay: IHC/IF on frozen human tumor tissue: ANC.
In turn, B1 displayed an IHC score of 2.

Molecule B2 registered an IHC score of 2.

B3 returned an IHC score of 2.

In the case of B4, the IHC score stood at 2.

The target of a further assay is T1, Human EphA2. Nature of the assay: IHC/IF on frozen human tumor tissue: GAC.
Molecule B1 showed an IHC score of 2.

On to B2, for which the IHC score was found to be 2.

In turn, B3 gave an IHC score of 2.

As to B4, the IHC score was found to be 2.

The target of the next assay is T1, Human EphA2. Nature of the assay: IHC/IF on frozen human tumor tissue: ER+ BRC.
B1: the IHC score came to 1.

As to B2, the IHC score was 1.

In turn, B3 gave an IHC score of 1.

Molecule B4 showed an IHC score of 1.

The target in another assay is T1, Human EphA2. Kind of assay: IHC/IF on frozen human tumor tissue: HNC.
As to B1, the IHC score turned out to be 2.

For the molecule B2, the IHC score is 2.

Take B3: the IHC score came to 2.

B4: the IHC score stood at 2.

Another assay addresses T1, Human EphA2. Nature of the assay: IHC/IF on frozen human tumor tissue: UCEC-papillary.
Consider B1, for which the IHC score came out at 2.

On to B2, for which the IHC score was 2.

The molecule B3 had an IHC score of 2.

Regarding B4, the IHC score was 2.

Another assay concerns the target T1, Human EphA2. Nature of the assay: IHC/IF on frozen human tumor tissue: ESO.
B1 had an IHC score of 2.

B2: the IHC score was found to be 2.

As for B3, the IHC score is 2.

B4 yielded an IHC score of 2.

In another assay the target is T1, Human EphA2. Kind of assay: IHC/IF on frozen human tumor tissue: OVA.
Molecule B1 gave an IHC score of 2.

Molecule B2 displayed an IHC score of 2.

With B3, the IHC score was 2.

Regarding B4, the IHC score worked out at 2.

The target in a further assay is T3, Human EphA2 (ephrin receptor A2) on …. Kind of assay: cell-based or functional assay.
As for B8, the “ADCC Delta activity (%), A549” value is 5.06% and the “ADCP Delta activity (%), A549” value came out at 17.3%.

As to B9, the “ADCC Delta activity (%), A549” value came out at 14.5% and the “ADCP Delta activity (%), A549” value was determined as 17.9%.

For the molecule B10, the “ADCC Delta activity (%), A549” value came to 0.4% and the “ADCP Delta activity (%), A549” value is 11.5%.

The target in a further assay is T1, Human EphA2. Nature of the assay: IHC/IF on frozen human tumor tissue: RCC-clear cell.
The molecule B1 yielded an IHC score of 1.

In turn, B2 displayed an IHC score of 1.

In turn, B3 showed an IHC score of 1.

B4: the IHC score is 1.

For a further assay, the target named is T1, Human EphA2. Kind of assay: IHC/IF on frozen human tumor tissue: NSCLC-Adeno.
Molecule B1 gave an IHC score of 2.

The molecule B2 registered an IHC score of 2.

In the case of B3, the IHC score stood at 2.

In turn, B4 returned an IHC score of 2.

(Values after US20250276077A1 (IMMUNOME, published 2025).)
